One test deals with HLA-A*01:01 (Homo sapiens, UniProt P04439, A114D/A174V/A182V/D101N/D185E/E176A/E190D/L180R/Q94H/R68K/S129P/T187R/V100A/V91M/W191G). The experiment in a line: MHC binding assay: UV-ligand exchange, ELISA of stabilized MHC complexes (peptide exchange yield). To be noted: binding to HLA-A*01:01, UV-ligand exchange. In outline: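 Peptide–MHC complexes were formed by UV-induced exchange of a photocleavable ligand for the test peptide. Exchange yield was measured by streptavidin-capture ELISA of 100-fold diluted complexes, detected with HRP anti-β2m at A450. Refolded HLA-A*02:01/MLA-001 monomers at 15-500 ng/ml served as standards.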

A further test concerns CD8+ T cells. The experiment in a line: In vitro T-cell priming assay with artificial antigen presenting cells loaded with peptide/MHC complexes and anti-CD28 antibody, pMHC multimer readout. To be noted: Table 10b; in vitro immunogenicity, peptide-specific multimer+ CD8+ T cells. It is filed as cell-based, human. From the text:
In order to obtain information regarding the immunogenicity of the TUMAPs of the present invention, the inventors performed investigations using an in vitro T-cell priming assay based on repeated stimulations of CD8+ T cells with artificial antigen presenting cells (aAPCs) loaded with peptide/MHC complexes and anti-CD28 antibody.
In order to perform in vitro stimulations by artificial antigen presenting cells loaded with peptide-MHC complex (pMHC) and anti-CD28 antibody, the inventors first isolated CD8+ T cells from fresh HLA-A*02 leukapheresis products via positive selection using CD8 microbeads (Miltenyi Biotec, Bergisch-Gladbach, Germany) of healthy donors obtained from the University clinics Mannheim, Germany, after informed consent.
PBMCs and isolated CD8+ lymphocytes were incubated in T-cell medium (TCM) until use consisting of RPMI-Glutamax (Invitrogen, Karlsruhe, Germany) supplemented with 10% heat inactivated human AB serum (PAN-Biotech, Aidenbach, Germany), 100 U/ml Penicillin/100 μg/ml Streptomycin (Cambrex, Cologne, Germany), 1 mM sodium pyruvate (CC Pro, Oberdorla, Germany), 20 μg/ml Gentamycin (Cambrex). 2.5 ng/ml IL-7 (PromoCell, Heidelberg, Germany) and 10 U/ml IL-2 (Novartis Pharma, Nurnberg, Germany) were also added to the TCM at this step.
Generation of pMHC/anti-CD28 coated beads, T-cell stimulations and readout was performed in a highly defined in vitro system using four different pMHC molecules per stimulation condition and 8 different pMHC molecules per readout condition.
The purified co-stimulatory mouse IgG2a anti human CD28 Ab 9.3 (Jung et al., 1987) was chemically biotinylated using Sulfo-N-hydroxysuccinimidobiotin as recommended by the manufacturer (Perbio, Bonn, Germany). Beads used were 5.6 μm diameter streptavidin coated polystyrene particles (Bangs Laboratories, Illinois, USA).
pMHC used for positive and negative control stimulations were A*0201/MLA-001 (peptide […] (SEQ ID NO. 433) from modified Melan-A/MART-1) and A*0201/DDX5-001 ([…] from DDX5, SEQ ID NO. 434), respectively.
800.000 beads/200 μI were coated in 96-well plates in the presence of 4×12.5 ng different biotin-pMHC, washed and 600 ng biotin anti-CD28 were added subsequently in a volume of 200 μI. Stimulations were initiated in 96-well plates by co-incubating 1×10^6 CD8+ T cells with 2×10^5 washed coated beads in 200 μI TCM supplemented with 5 ng/ml IL-12 (PromoCell) for 3 days at 37° C. Half of the medium was then exchanged by fresh TCM supplemented with 80 U/ml IL-2 and incubating was continued for 4 days at 37° C. This stimulation cycle was performed for a total of three times. For the pMHC multimer readout using 8 different pMHC molecules per condition, a two-dimensional combinatorial coding approach was used as previously described (Andersen et al., 2012) with minor modifications encompassing coupling to 5 different fluorochromes. Finally, multimeric analyses were performed by staining the cells with Live/dead near IR dye (Invitrogen, Karlsruhe, Germany), CD8-FITC antibody clone SK1 (BD, Heidelberg, Germany) and fluorescent pMHC multimers. For analysis, a BD LSRII SORP cytometer equipped with appropriate lasers and filters was used. Peptide specific cells were calculated as percentage of total CD8+ cells. Evaluation of multimeric analysis was done using the FlowJo software (Tree Star, Oregon, USA). In vitro priming of specific multimer+CD8+ lymphocytes was detected by comparing to negative control stimulations.

Turning to “75 (FTDYELKAY; listed as Homo sapiens) [compound 75]”, the Peptide exchange entry in the test with HLA-A*01:01 is given as “++++ (>75% = ++++)”. In the test on CD8+ T cells, the “Wells positive [%]” value is “+ (<20% = +)”.

“77 (FTSDTGLEY; listed as Homo sapiens) [compound 77]”: the Peptide exchange entry in the test with HLA-A*01:01 is “++++ (>75% = ++++)”. The “Wells positive [%]” value in the test on CD8+ T cells is reported as “+++ (50%-69% = +++)”.

On to “79 (ASDLEPRELLSY; listed as Homo sapiens) [compound 79]”, for which the Peptide exchange result in the test with HLA-A*01:01 was “+++ (>50 = +++)”. Moreover, the “Wells positive [%]” value in the test on CD8+ T cells was “+ (<20% = +)”.

On to “81 (YSDLHTPGRY; listed as Homo sapiens) [compound 81]”, for which, in the test with HLA-A*01:01, the Peptide exchange result is “+++ (>50 = +++)”. Besides, the “Wells positive [%]” value in the test on CD8+ T cells is “+ (<20% = +)”.

As for “82 (LTEKSHIRY; listed as Homo sapiens) [compound 82]”, the Peptide exchange result with HLA-A*01:01 is listed as “+++ (>50 = +++)”. In addition, the “Wells positive [%]” value with CD8+ T cells is given as “+ (<20% = +)”.

Take “83 (DTEFHGGLHY; listed as Homo sapiens) [compound 83]”: in the test with HLA-A*01:01, the Peptide exchange entry is listed as “+++ (>50 = +++)”. Besides, in the test with CD8+ T cells, the “Wells positive [%]” value is given as “+ (<20% = +)”.

For “84 (ESEMIKFASYY; listed as Homo sapiens) [compound 84]”, the Peptide exchange result with HLA-A*01:01 is “++++ (>75% = ++++)”. For the same substance, in the test with CD8+ T cells, the “Wells positive [%]” value is recorded as “+ (<20% = +)”.

Turning to “386 (NSALNPLLY; listed as Homo sapiens) [compound 386]”, the Peptide exchange entry with HLA-A*01:01 is “++++ (>75% = ++++)”. Besides, in the test on CD8+ T cells, the “Wells positive [%]” value is given as “+ (<20% = +)”.

For “387 (LMEKEDYHSLY; listed as Homo sapiens) [compound 387]”, the Peptide exchange result with HLA-A*01:01 is “+++ (>50 = +++)”. Moreover, the “Wells positive [%]” value in the test with CD8+ T cells is recorded as “+ (<20% = +)”.
